Among the data in PMC3373015 are pKa values, retold here.

Some results are limits rather than exact numbers.

In data set [1] the target is T1, Asp38 (UniProt position 120, TFRLLDVDTPE). As to the kind of experiment: NMR. Conditions: 298 K; 100 mM KCl, 0.5 mM NaN3 (no buffer stated); folded, no ligand.
Data set [2] deals with T1, Asp38. Description: stability. Conditions: folded/unfolded equilibrium, no ligand.
The next data set deals with Asp143 (UniProt position 225, NIWSEDNADSG). As to the kind of experiment: NMR.
The target of the next data set is Asp146 (UniProt position 228, SEDNADSGQ--). Description: NMR.
A further data set deals with Asp19 (UniProt position 101, LIKAIDGDTVK). Description: NMR.
The target of a further data set is Asp21 (UniProt position 103, KAIDGDTVKLM). Description: NMR.
In data set [3] the target is Asp40 (UniProt position 122, RLLEVDTPETK). Description: NMR. Conditions: 298 K; 100 mM KCl, 0.5 mM NaN3 (no buffer stated); folded, no ligand.
The target in a further data set is Asp77 (UniProt position 159, IEVEFDKGQRT). Description: NMR.
Another data set has as its target Asp83 (UniProt position 165, KGQRTDKYGRG). As to the kind of experiment: NMR.
The target of another data set is Asp95 (UniProt position 177, AYIYADGKMVN). Description: NMR.
The next data set has as its target Glu10 (UniProt position 92, KKLHKEPATLI). As to the kind of experiment: NMR.
The target in another data set is Glu101 (UniProt position 183, GKMVNEALVRQ). Description: NMR.
A further data set deals with Glu122 (UniProt position 204, GNNTHEQLLRK). As to the kind of experiment: NMR.
A further data set concerns the target Glu129 (UniProt position 211, LLRKAEAQAKK). As to the kind of experiment: NMR.
The next data set has as its target Glu135 (UniProt position 217, AQAKKEKLNIW). As to the kind of experiment: NMR.
The next data set addresses Glu142 (UniProt position 224, LNIWSEDNADS). As to the kind of experiment: NMR.
Data set [4] deals with T2, Glu38 (UniProt position 120, TFRLLEVDTPE). Description: NMR. Conditions: 298 K; 100 mM KCl, 0.5 mM NaN3 (no buffer stated); folded, no ligand.
In data set [5] the target is Glu43 (UniProt position 125, EVDTPETKHPK). Description: NMR. Conditions: 298 K; 100 mM KCl, 0.5 mM NaN3 (no buffer stated); folded, no ligand.
The target in a further data set is Glu52 (UniProt position 134, PKKFNEKYGPE). Description: NMR.
Another data set addresses Glu57 (UniProt position 139, EKYGPEASAFT). As to the kind of experiment: NMR.
A further data set has as its target Glu67 (UniProt position 149, TKKMVENAKKI). As to the kind of experiment: NMR.
In a further data set the target is Glu73 (UniProt position 155, NAKKIEVEFDK). As to the kind of experiment: NMR.
In another data set the target is Glu75 (UniProt position 157, KKIEVEFDKGQ). Description: NMR.
For data set [6], the target named is T2, Glu38. Description: stability. Conditions: folded/unfolded equilibrium, no ligand.
The target of data set [7] is Asp40 (UniProt position 122, RLLKVDTPETK). Description: NMR. Conditions: 298 K; 100 mM KCl, 0.5 mM NaN3 (no buffer stated); folded, no ligand.
Data set [8] has as its target Glu43 (UniProt position 125, KVDTPETKHPK). Description: NMR. Conditions: 298 K; 100 mM KCl, 0.5 mM NaN3 (no buffer stated); folded, no ligand.
Another data set addresses Lys38 (UniProt position 120, TFRLLKVDTPE). Description: stability. Conditions: cited from earlier work.
Data set [9] has as its target Asp40 (UniProt position 122, RLLLVDTPETK). As to the kind of experiment: NMR. Conditions: folded Δ+PHS nuclease; cited from earlier work.
Data set [10] concerns the target Glu43 (UniProt position 125, LVDTPETKHPK). As to the kind of experiment: NMR. Conditions: folded Δ+PHS nuclease; cited from earlier work.
In another data set the target is His8 (UniProt position 90, STKKLHKEPAT). Conditions: folded Δ+PHS nuclease; cited from earlier work.
Setting [11] is: 298 K, 100 mM KCl, 0.5 mM NaN3 (no buffer stated), folded, no ligand.
[12] abbreviates: folded Δ+PHS nuclease, cited from earlier work.

As usually defined, the pKa is the negative logarithm of the acid dissociation constant. With “Staphylococcal nuclease Δ+PHS/L38D (Staphylococcus aureus; G50F;V51N;P117G;H124L;S128A;del44-49;L38D)”, the pKa is given as 7.2 with Asp38 [1] and 6.8 +/- 0.3 with Asp38 [2].

Consider “Staphylococcal nuclease Δ+PHS/L38D/E122Q (Staphylococcus aureus; G50F;V51N;P117G;H124L;S128A;del44-49;L38D;E122Q)”, for which the pKa with Asp38 [1] is recorded as 6.6; in the data set with Asp38 [2] it was 6.9 +/- 0.3.

For the substance “Staphylococcal nuclease Δ+PHS/L38E (Staphylococcus aureus; G50F;V51N;P117G;H124L;S128A;del44-49;L38E)”, the pKa with Asp143 (setting [11]) is recorded as 3.8; with Asp146 (setting [11]), 3.9; with Asp19 (setting [11]), less than 2.5; with Asp21 (setting [11]), 6.6; with Asp40 [3], 3.9; with Asp77 (setting [11]), less than 2.5. Besides, the pKa is reported as less than 2.5 with Asp83 (setting [11]); 2.3 in the data set with Asp95 (setting [11]); 3.1 with Glu10 (setting [11]); 3.9 in the data set with Glu101 (setting [11]); 3.8 in the data set with Glu122 (setting [11]); 3.9 with Glu129 (setting [11]). Further, the pKa is given as 3.8 with Glu135 (setting [11]); 4.5 with Glu142 (setting [11]); 7.0 with Glu38 [4]; 4.4 in the data set with Glu43 [5]; 4.0 in the data set with Glu52 (setting [11]); 3.6 with Glu57 (setting [11]). In addition, the pKa is on record as 3.8 in the data set with Glu67 (setting [11]), 3.4 with Glu73 (setting [11]), 3.3 with Glu75 (setting [11]) and 7.0 +/- 0.3 with Glu38 [6].

For “Staphylococcal nuclease Δ+PHS/L38E/D77N (Staphylococcus aureus; G50F;V51N;P117G;H124L;S128A;del44-49;L38E;D77N)”, the pKa in the data set with Glu38 [4] is listed as 6.1.

For the substance “Staphylococcal nuclease Δ+PHS/L38E/E122D (Staphylococcus aureus; G50F;V51N;P117G;H124L;S128A;del44-49;L38E;E122D)”, in the data set with Glu38 [4], the pKa amounted to 7.4.

As to “Staphylococcal nuclease Δ+PHS/L38E/E122Q (Staphylococcus aureus; G50F;V51N;P117G;H124L;S128A;del44-49;L38E;E122Q)”, the pKa with Glu38 [4] was 6.2.

Regarding “Staphylococcal nuclease Δ+PHS/L38E/R126Q (Staphylococcus aureus; G50F;V51N;P117G;H124L;S128A;del44-49;L38E;R126Q)”, in the data set with Glu38 [4], the pKa is 7.2.

Consider “Staphylococcal nuclease Δ+PHS/L38K (Staphylococcus aureus; G50F;V51N;P117G;H124L;S128A;del44-49;L38K)”, for which the pKa with Asp143 (setting [11]) is given as 4.0; with Asp146 (setting [11]), 4.0; with Asp19 (setting [11]), less than 2.5; with Asp21 (setting [11]), 6.5; with Asp40 [7], 3.8; in the data set with Asp83 (setting [11]), less than 2.5. Also, the pKa with Asp95 (setting [11]) came to 2.1; in the data set with Glu10 (setting [11]), 3.1; in the data set with Glu101 (setting [11]) it was 3.9; with Glu122 (setting [11]), 3.9; in the data set with Glu129 (setting [11]) it was 3.8; with Glu135 (setting [11]), 3.9. The pKa turned out to be 4.6 with Glu142 (setting [11]); 4.5 with Glu43 [8]; 4.1 in the data set with Glu52 (setting [11]); 3.6 with Glu57 (setting [11]); 3.9 with Glu67 (setting [11]); 3.3 with Glu73 (setting [11]). The pKa with Lys38 is given as no less than 10.4.

As to “Staphylococcal nuclease, Δ+PHS variant (Staphylococcus aureus; G50F;V51N;P117G;H124L;S128A;del44-49)”, the pKa is recorded as 3.8 with Asp143 (setting [12]); 3.9 with Asp146 (setting [12]); 2.2 with Asp19 (setting [12]); 6.5 with Asp21 (setting [12]); 3.9 in the data set with Asp40 [9]; less than 2.5 with Asp77 (setting [12]). The pKa with Asp83 (setting [12]) is less than 2.5; with Asp95 (setting [12]), 2.2; with Glu10 (setting [12]), 2.8; with Glu101 (setting [12]) it was 3.8; with Glu122 (setting [12]), 3.9; in the data set with Glu129 (setting [12]), 3.8. Moreover, the pKa in the data set with Glu135 (setting [12]) is recorded as 3.8; with Glu142 (setting [12]) it was 4.5; with Glu43 [10] it was 4.3; with Glu52 (setting [12]) it was 3.9; with Glu57 (setting [12]) it was 3.5; with Glu67 (setting [12]) it was 3.8. Besides, the pKa in the data set with Glu73 (setting [12]) was 3.3; with Glu75 (setting [12]) it was 3.3; with His8, 6.5.
